± gives the uncertainty stated by the source.
Assay: self-splicing fitness, log relative to wild type (ln ratio); higher = more splicing; Tetrahymena group I intron in knt gene, E. coli kanamycin selection, DiMSum; sequences stand for … in CUCUCU…GGAGGGAAAAGUUAUCAGGCAUGCACCUGGUAGCUAGUCUUUAAACCAAUAGAUUGCAUCGGUUUAAAAGGCAAGACCGUCAAAUUGCGGGAAAGGGGUCAACAGCCGUUCAGUACCAAGUCUCAGGGGAAACUUUGAGAUGGCCUUGCAAAGGGUAUGGUAAUAAGCUGACGGACAUGGUCCUAACCACGCAGCCAAGUCCUAAGUCAACAGAUCUUCUGUUGAUAUGGAUGCAGUUCACAGACUAAAUGUCGGUCGGGGAAGAUGUAUUCUUCUCAUAAGAUAUAGUCGGACCUCUCCUUAAUGGGAGCUAGCGGAUGAAGUGAUGCAACACUGGAGCCGCUGGGAACUAAUUUGUAUGCGAAAGUAUAUUGAUUAGUUUUGGAGUACUCGUGGUCG
Outline: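 Fitness was computed with DiMSum as the error-weighted combination of replicate fold changes, kanamycin versus none, each normalised to wild type. The library randomised all eight intron nucleotides of the P1ex region, with the intron placed in the knt kanamycin-resistance gene on pET-22b(+) in E. coli BL21(DE3). Six replicate transformations were grown overnight at 37°C or 30°C on LB agar with or without 25 μg/mL kanamycin, plus 100 μg/mL carbenicillin, 50 μM IPTG and 0.2% rhamnose. Pooled colonies were amplicon-sequenced on an Illumina HiSeq 2500.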

| Sequence | self-splicing fitness (ln) (30 °C) | self-splicing fitness (ln) (37 °C) |
| --- | --- | --- |
| ACGAAGCAAUAUUACGCCAC | -3.08 ± 0.19 | -2.56 ± 0.28 |
| ACGAAGCAAUAUUACGCCCA | -1.11 ± 0.17 | -0.748 ± 0.26 |
| ACGAAGCAAUAUUACGCCGA | -0.564 ± 0.086 | -0.414 ± 0.1 |
| ACGAAGCAAUAUUACGGCCA | -0.778 ± 0.091 | 0.402 ± 0.095 |
| ACGAAGCAAUAUUACGGCUA | 0.0742 ± 0.099 | 0.022 ± 0.11 |
| ACGAAGCAAUAUUACGGGGC | -3.36 ± 0.14 | -2.76 ± 0.16 |
| ACGAAGCAAUAUUACGGGUG | -1.74 ± 0.069 | -1.36 ± 0.083 |
| ACGAAGCAAUAUUACGGUAU | -2.57 ± 0.093 | -1.27 ± 0.091 |
| ACGAAGCAAUAUUACGGUUU | -3.17 ± 0.13 | -1.89 ± 0.12 |
| ACGAAGCAAUAUUACGUCGA | -2.34 ± 0.12 | -1.65 ± 0.1 |
| ACGAAGCAAUAUUACGUCGC | -3.22 ± 0.21 | -1.24 ± 0.17 |
| ACGAAGCAAUAUUACGUGCG | -1.35 ± 0.074 | -1.36 ± 0.089 |
| ACGAAGCAAUAUUACGUGCU | -2.96 ± 0.12 | -1.84 ± 0.14 |
| ACGCAGCAAUAUUACGAAUC | -4.07 ± 0.34 | -2.11 ± 0.22 |
| ACGCAGCAAUAUUACGAAUU | -4.01 ± 0.23 | -1.48 ± 0.1 |
| ACGCAGCAAUAUUACGCGCA | -0.215 ± 0.096 | 0.231 ± 0.11 |
| ACGCAGCAAUAUUACGCGUG | -3.43 ± 0.18 | -2.07 ± 0.17 |
| ACGCAGCAAUAUUACGGAGU | -2.79 ± 0.093 | -2.08 ± 0.12 |
| ACGCAGCAAUAUUACGGCCA | -0.646 ± 0.092 | 0.161 ± 0.12 |
| ACGCAGCAAUAUUACGGCUU | -0.345 ± 0.046 | -0.227 ± 0.057 |
| ACGCAGCAAUAUUACGGGAU | -2.32 ± 0.079 | -1.41 ± 0.089 |
| ACGCAGCAAUAUUACGGUAU | -2.67 ± 0.15 | -1.03 ± 0.12 |

| Sequence | self-splicing fitness (ln) (30 °C) | self-splicing fitness (ln) (37 °C) |
| --- | --- | --- |
| ACGCAGCAAUAUUACGGUGA | -1.39 ± 0.05 | 0.18 ± 0.063 |
| ACGCAGCAAUAUUACGUCGA | -2.34 ± 0.11 | -1.34 ± 0.092 |
| ACGCAGCAAUAUUACGUGCU | -3.65 ± 0.18 | -2.9 ± 0.19 |
| ACGCAGCAAUAUUACGUGUC | -3.37 ± 0.14 | -2.71 ± 0.2 |
| ACGCAGCAAUAUUACGUUCC | -1.71 ± 0.11 | -2.26 ± 0.19 |
| ACGCAGCAAUAUUACGUUGU | -3.57 ± 0.13 | -2.84 ± 0.12 |
| ACGGAGCAAUAUUACGAGUU | -3.23 ± 0.22 | -2.54 ± 0.33 |
| ACGGAGCAAUAUUACGAUAU | -2.48 ± 0.21 | -2.12 ± 0.23 |
| ACGGAGCAAUAUUACGAUGA | -2.56 ± 0.12 | -2.57 ± 0.19 |
| ACGGAGCAAUAUUACGAUUC | -2.11 ± 0.32 | – |
| ACGGAGCAAUAUUACGCCUA | -2.13 ± 0.28 | -1.6 ± 0.27 |
| ACGGAGCAAUAUUACGCUAG | -2.63 ± 0.25 | -2.16 ± 0.34 |
| ACGGAGCAAUAUUACGGCCA | -1.69 ± 0.25 | -2.11 ± 0.23 |
| ACGGAGCAAUAUUACGGGAC | -2.93 ± 0.39 | -2.69 ± 0.36 |
| ACGGAGCAAUAUUACGGGUG | -3.61 ± 0.18 | -3.18 ± 0.22 |
| ACGGAGCAAUAUUACGUAGU | -2.37 ± 0.11 | -1.36 ± 0.12 |
| ACGGAGCAAUAUUACGUCCG | -3.13 ± 0.37 | -2.36 ± 0.42 |
| ACGGAGCAAUAUUACGUGGC | -4.63 ± 0.42 | – |
| ACGGAGCAAUAUUACGUUUA | -3.14 ± 0.2 | -2.68 ± 0.21 |
| ACGGAGCAAUAUUACGUUUU | – | -3.08 ± 0.2 |
| ACGUAGCAAUAUUACGAAAC | -2.02 ± 0.45 | -2.26 ± 0.4 |

From the supplement of paper PMC7877785
